Assay results taken from publication PMC7534470 (The Plant Cell, 2020).

Target: T1, MBP-COP1 (Arabidopsis thaliana, UniProt P43254 1-675)
T1 sequence (looked up): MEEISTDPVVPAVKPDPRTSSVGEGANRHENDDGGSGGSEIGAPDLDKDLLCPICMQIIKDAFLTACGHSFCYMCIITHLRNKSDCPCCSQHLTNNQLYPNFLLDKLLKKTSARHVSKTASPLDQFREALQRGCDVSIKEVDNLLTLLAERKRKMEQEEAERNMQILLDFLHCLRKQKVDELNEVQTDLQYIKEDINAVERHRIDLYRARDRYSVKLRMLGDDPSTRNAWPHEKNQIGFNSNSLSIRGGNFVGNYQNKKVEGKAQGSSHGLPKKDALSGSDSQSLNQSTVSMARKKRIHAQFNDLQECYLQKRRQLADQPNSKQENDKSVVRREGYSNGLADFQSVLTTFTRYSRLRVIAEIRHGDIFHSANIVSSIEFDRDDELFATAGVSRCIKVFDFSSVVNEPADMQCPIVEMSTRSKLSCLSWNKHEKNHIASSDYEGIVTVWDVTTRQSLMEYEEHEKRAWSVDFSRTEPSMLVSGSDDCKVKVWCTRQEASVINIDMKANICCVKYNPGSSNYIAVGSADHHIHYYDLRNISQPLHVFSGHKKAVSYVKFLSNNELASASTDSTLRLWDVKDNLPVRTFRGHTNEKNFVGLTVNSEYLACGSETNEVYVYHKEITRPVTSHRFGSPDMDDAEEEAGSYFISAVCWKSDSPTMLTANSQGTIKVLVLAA
Experiment: pull-down

B1: His-COR27 (natural protein, Arabidopsis thaliana, UniProt Q8L8T7 1-246, looked up)
chain: MVGDYRGRFSSRRFSDDSDDSSDDASSVEGETTSSMYSAGKEYMETEWTNEKHSLYLKSMEASFVDQLYNSLGALGKNENVSESTRFGSGRKPSQEQFKVLHDGFWQKINVKQPEHRINGRHGGNSHEFLRSPWIKHYKPLVKTQIPVTDEPENQVVSSSNGKKGICSSGSASSLKQLSSHSRDHDQISVGEAEVSDQNFVNEGIKGENGSSKKMKTVMMSESSSTDQVVPLNKLLQHDVNLKSVS
binding result: binds
